The series in a line: label from the status in PepcDB records.
For the sequence “MSSSSVEQQVVQHFSHTHPLTKVDEYGEFTCGGCKTYGFGKTYRCAPCDYVLHDHCATCPFTLISFMHPQHELRLFVNGSENMCNICHRLVEGVYYHCETCGFDVHPLCTQHHQHVSYVPHPAHLLELSQCGASNTCMVCRGAILSWRYKCGPCMLDVHVECVNSSAPAATEPQMDLNTSQDPQPYNDECGGIHNYEHTNKGQVSGPSKRRRVFRFFKDVTVEVVSSIITEML”, the protein production result is “failed”.
To “MSQQNTELEGIGKLRSGSLFMILAVLLAAIGILVIISAGMLGGMFSAASGNVSGVIASGIGLLVGIAIVILIGAIIGLIGILRIRSGFGILKSLGRDVGIGEIGTTLYLVGLIIIIIGALLTIVLIGFPILILGEIIALIGGILIGIGFYKVGEIYNEGLVKIGGILIVIPIDLINFVGFILAYVGLGKVRPLPTVAQQPLVPQVYQVGQGTIRNNGYAYITLYSSTPASIISAKIEGANIMSSAINPTVLQIGNNEVTIFFGNVQSLAPNTTYIITLTINIGGNIINISTTAVYQP” belongs “failed”; to “MLASIISILRVFVLLFNTPLFIFAFLPVGFLGYFILQAYAKNPLFPKLWLVLASLFFYAFWNVKYLPLLVGSIVFNYFVALKIHQTQPNAYKRLWLILGLIANVSLLGFFKYTDFFLTNFNLIWKSHFETLHLILPLAISFFTLQQIAYLMDTYKQNQIMQPKMRERVSENAPILLNPPTSFFSLSHFLDYALFVSFFPQLIAGPIVHHSEMMPQFKDKNNQYLNYRNIALGLFIFSIGLFKKVVIADNTAHFADFGFDKATSLSFIQAWMTSLSYSFQLYFDFSGYCDMAIGIGLFFNIKLPINFNSPYKALNIQDFWRRWHITLSRFLKEYLYIPLGGNRVKELIVYRNLILVFLIGGFWHGAGWTFIIWGLLHGIALSVHRAYSHATRKFHFTMPKILAWLITFNFINLAWVFFRAKNLESALKVLKGMVGLNGVSLCHLSKEASEFLNRVNDNMIMHTIMYASPTFKMCVLMIIISFCLKNSSHLYQSNQMDWIKTTSACLLLSIGFLFIFASSQSVFLYFNF”, “failed”.
In the case of “MTSRLRALGGRINNIRTSELPKEKTRSEVTCSIRFLDGLVQTFKVNKQDLGQSLLDMAYGHLGVTEKEYFGLQHGDDPVDSPRWLEASKPLRKQLKGGLPCILHFRVRYFIPDPNTLQQEQTRHLYFLQLKMDVCEGRLTCPLNSAVVLASYAVQSHIGDFNSSIHHPGYLADSQFIPDQNDDFLSKVESLHEQHSGLKQSEAESCYINIARTLDFYGVELHGGRDLHNLDLMIGIASAGIAVYRKYICTSFYPWVNILKISFKRKKFFIHQRQKQAESREHIVAFNMLNYRSCKNLWKSCVEHHSFFQAKKLLPQEKNVLSQYWTLGSRNPKKSVNNQYCKKVIGGMVWNPVMRRSLSVERLETKSLPSRSPPITPNWRSPRLRHEIRKPRHSSADNLANEMTYITETEDVFYTYKGSLSPKDSDSEVSQNHSPHRGSLSENNPAQSCLTQKSSSSVSPCSNAPGSFSPDGVDQQFLEDYHKVTKGGSIEEASQYYCDKNDDGDGYLVLIRITPDKEGRFGFNLKGGVDQKMPLVVSRINPESPADTCMPKLNEGDQIVLINGRDISEHTHDQVVMFIKASRESHSRELALVIRRKAVRSLAEIRSEDELSQLFPEAMFPACPEGGDSLEGSMELLKKGLESGTVLIQFEQLYRKKPGLAVTFAKLPQNLDKNRYKDVLPYDTTRVLLQGNEDYINASYVNMEIPAANLVNKYIATQGPLPHTCAQFWQVVWDQKLSLVVMLTTLTERGRTKCHQYWPDPPDIMDHGIFHIQCQAEDCTIAYVSREMLVTNTETGEEHTVTHLQYVAWPDHGVPDDSSDFLEFVKYVRSLRVGGEPALVHCSAGIGRTGVLVTMETAMCLIERNLPVYPLDIVRKMRDQRAMMVQTSSQYKFVCEAILRVYEEGLVQTLDPS”, the protein production entry is given as “failed”.
In the case of “METRAAENTAIFMCKCCNLFSPNQSELLSHVSEKHMEEGVNVDEIIIPLRPLSTPEPPNSSKTRDEFLVMKRKRGRPKGSTKKSSTEEELAENIVSPTEDSPLAPEEGNSLPPSSLECSKCCRKFSNTRQLRKHICIIVLNLGEEEGEAGNESDLELEKKCKEDDREKASKRPRSQKTEKVQKISGKEARQLSGAKKPIISVVLTAHEAIPGATKIVPVEAGPPETGATNSETTSADLVPRRGYQEYAIQQTPYEQPMKSSRLGPTQLKIFTCEYCNKVFKFKHSLQAHLRIHTNEKPYKCPQCSYASAIKANLNVHLRKHTGEKFACDYCSFTCLSKGHLKVHIERVHKKIKQHCRFCKKKYSDVKNLIKHIRDAHDPQDKKVKEALDELCLMTREGKRQLLYDCHICERKFKNELDRDRHMLVHGDKWPFACELCGHGATKYQALELHVRKHPFVYVCAVCRKKFVSSIRLRTHIKEVHGAAQEALVFTSSINQSFCLLEPGGDIQQEALGDQLQLVEEEFALQGVNALKEEACPGDTQLEEGRKEPEAPGEMPAPAVHLASPQAESTALPPCELETTVVSSSDLHSQEVVSDDFLLKNDTSSAEAHAAPEKPPDMQHRSSVQTQGEVITLLLSKAQSAGSDQESHGAQSPLGEGQNMAVLSAGDPDPSRCLRSNPAEASDLLPPVAGGGDTITHQPDSCKAAPEHRSGITAFMKVLNSLQKKQMNTSLCERIRKVYGDLECEYCGKLFWYQVHFDMHVRTHTREHLYYCSQCHYSSITKNCLKRHVIQKHSNILLKCPTDGCDYSTPDKYKLQAHLKVHTALDKRSYSCPVCEKSFSEDRLIKSHIKTNHPEVSMSTISEVLGRRVQLKGLIGKRAMKCPYCDFYFMKNGSDLQRHIWAHEGVKPFKCSLCEYATRSKSNLKAHMNRHSTEKTHLCDMCGKKFKSKGTLKSHKLLHTADGKQFKCTVCDYTAAQKPQLLRHMEQHVSFKPFRCAHCHYSCNISGSLKRHYNRKHPNEEYANVGTGELAAEVLIQQGGLKCPVCSFVYGTKWEFNRHLKNKHGLKVVEIDGDPKWETATEAPEEPSTQYLHITEAEEDVQGTQAAVAALQDLRYTSESGDRLDPTAVNILQQIIELGAETHDATALASVVAMAPGTVTVVKQVTEEEPSSNHTVMIQETVQQASVELAEQHHLVVSSDDVEGIETVTVYTQGGEASEFIVYVQEAMQPVEEQAVEQPAQEL”, the protein production result is reported as “not failed”.
With “MDRGGMKHREGGPGPRTEMSGYSVYEEENERLTENLKMKTSALKSLSIDIGNEVKYHNKMLGEMDSDFDSTGGLLGSTMGRLKILSRGSQAKLLCYMMLFAFFVFFVIYWFIKLR” the entry was “failed”; with “MSKVCQVTGKRPVVGNNVSHANNKTKRRFEPNLHHHRFWLESEKRFVRLRLTTKGMRIIDKLGIEKVVADLRAQGQKI”, “failed”.
To “MASWLVLCRFVHFAVVLTLVGAWVFRPLLLGRDSAQSGHGAVHRQLDRLSRWLTLIGLGSGLCWLLLITASMAGSWSAALDPATVQLVLGKTFFGQVWTWHLLLNLLLLGLLLTPLGRRLPLQLGLGALLLATLAPVGHGAMLDGLAGQLLILNQVVHLSCVGIWLGGLLVLLLVLRQPPQASVEPLLRRFSGVGYGLVAGLLASGLINVRVLTGQWWPTPLFSGFALILLIKVLLVAGMLALALFNRLRIRGCDQRLASLRNSVQLEWLLGVAAVAAVSLLGTLPPMQVI” belongs “failed”; to “MIDPLASPGSAPLIVIAGPTASGKSALALRVARRFNGVVINADSMQVYRDLRILSARPSVEDEAAAPHALYGVLDGAEVCSVGRWLALADGAVAAARAAGRLPILCGGTGLYLKAALEGLASVPEVAPEVRAEARELLAALGPAALHAKLAELDRAMAERLRPSDAQRIARAYEVVRGTGRSLMDWWSDPVATPALPGRPLLLVIDPPRAAQRAACDARLLAMVAAGALDELALLLARRLDPALPVMRAVGVPELARTLRGEVGLAEAVERAQGATRRYAKRQGTWIRTQLRPDRVLSESLVTQLSESQLTDIDNFLYAFLLTGAS”, “failed”; to “MTPLPPRPGPGARLARPAAAVLLVAAIGALAAFAPGPATRALESLRQSAPAAAAALAAAYVASGPLMIPAPLLHLAAGFALGPVSGSLVAIPASTLGACAAFAAGRWLVRERAARLAARSPALAGVDAALAASGFRVVLLLRLAPLAPFTVLNYLLGATPVPLRAFALASLLGSVPGLILSVYVGSLAADAAALRATVDAGRGGPGALILPAIGTGAILLAISWVLRRALAASAGARPPPA”, “failed”.
For “MSDSDAMTDPNAVSYSNAIVVLCTAPDEASAQNLAAQVLGEKLAACVTLLPGATSLYYWEGKLEQEYEVQLLFKSNTDHQQALLTYIKQHHPYQTPELLVLPVRDGDKDYLSWLNASLL”, the protein production entry was “failed”.
With “MQPCPSEAPRVLHALTRRGMALALAATLSLVLSACGGGGDDTAAATTAPPSSNAVTPSPSPAPAPTYSVGGTVAGLGSGLSVKLLNNGGDAVTVTANGNFQFPTALASGAQYAATVGTRPSGQQCTIANDSGTMGSANVTNIAVTCSTRPLFAYTANSNDNTVSAYTLDPTTGAPTLIGTPISVGQGPLSLIADKAGKFVYVVDGNDNSVTTLAIDSETGLLTISGTPATTGMQPFNIARTPASTFAYTTNFGDNTLSGFSINATTGVLTSIGTIAAGTNPYTIVINKAGTFAYVVNAASGAGTPSAMVFSINGATGALTAVGSPVATGNAPFYIALHPAGTFAYVANSQDNTVQVYAINQTTGALTAVGSPVATGQGPIPIAIHPSGLFAYVGNVFDNTVSLYAINTGTGALTLKSTLATGNDPLAITLNDAGSIAYIVNGVDHDVVAYAVDSSTGALTSVATAQTGLLPRAFAIVAVP”, the protein production entry was “failed”.
Turning to “MSMVLSFLKKFVENHVMSRHTVAVTLFLTDMAVILGTAIGVGLLRHAFDGYLDPTHYLRLLPFLLLFPAASFAMGLYQSVPLPPPCELKRLSLATCCTYLAIAIFIFFTRGGELYSRLTFALAGLVSLVAVPVARHLVRQRMARHRGWAAPALLFGKPHHVQPLAHILLSSPSLGLEPVAIVSAEHSTCHDFGCLPAFDAETTRQYAAGHPEAYAIVVMESYDEADRAHLVEHLSRLFCSVILLRSSTMSTGNIWLSPIEIGGLPGLMVRQNLLDPRRLTVKRTLDLIATTLALPLILPVMAVIALCIRLETPGPALFTQRRIGRDGYHFDILKFRTMYNDADTRLAECLEQSPELDAEWRRDHKLRCDPRVTRVGAFLRKTSLDELPQLWNVLRGDMSLVGPRPIVDSEVQRYDAAFATYTRVRPGITGLWQVSGRNNLSYPERVQRDMYYISNWSVWFDIWIIARTIPVVLHRDGAY”, the protein production result is reported as “failed”.
“METNQLRGIFYMMAAMLLISVQEALAKYLGQALPVAQVVWARYLGHLVLMIILLWPKNGMSLLKTNKLFIQIARSLILLIDTVLFFFGLTMLGLAEATAIFFTVPLLVLLLSIPLLGERVSASSIVAVIVGFIGTLIIVRPGINGLGSSDLGIGALFIFGAACCTAIYNVTTRKLSASEPIPVTLFYTAIVGAVVTSLFLPFIWETPTSLEVWAALIFIGLFGGSAHSLIIISHKYAAATTVAPFIYSQIFWALGLGWLMFGELPDFYVYFGGAIVISSGLYLFYHGRTRVNTASQQLGKDPLLVNAAKIKALQNRP”: the protein production result is recorded as “failed”.
Consider “MTYLFVAAGGALGSTLRYWLSGLIAGAIGQSFPWGTLVINISGSIVIGAFATLTGPDGRVFIPGDWRQFFMVGVCGGYTTFSSFSLQTLTLAQEGQGLWAAANVVLSVVFCLIGVWLGHVGAVLINEGV”, for which the protein production result is “failed”.
On to “MYEITATIVTYKNPDSVLLKAINSFLNTKLEVRLYIIDNSPTDYLKDISYDPRVEYIFMNSNNGFGAGHNVILRDPEKMGKYHLILNPDISFEEGTLEKLYDYMEGKLDVGNVMPKVIYPNGELQYLCKLLPTPKDWIVRMFLPIKSIKNRIDYNFEMKFADYDREMNIPYLSGCFMFLRKSVIEGIGVFDEGIFMYGEDTDLNRRIYRKYKTMYYPQVTITHHFEKGSHKSLRLLWIHVKAAIYYLNKWGWFFDKERSIINITVKQQYIRKLEHHHHHH”, for which the protein production result is “not failed”.
As for “AIAAEMKTYSHRTMPSACTLVMCSSVESGLPGRDGRDGREGPRGEKGDPGLPGAAGQAGMPGQAGPVGPKGDNGSVGEPGPKGDTGPS”, the protein production entry is reported as “failed”.
Take “HKPWRAEYAKSSRSSCKTCKSVINKENFRLGKLVQSTHFDGIMPMWNHASCILKKTKQIKSVDDVEGIESLRWEDQQKIRKYVESGAGSNTSTSTGTSTSS”: the protein production result was “not failed”.

The values are drawn from a protein production outcome set (Wang et al. 2014).
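Further: failed if final PepcDB status was selected cloned or expressed and not failed if soluble or beyond.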
